Biological target: transmembrane tumor necrosis factor (tmTNF) knock-in mutant, on bone-marrow-derived macrophages of 3TG mice (TNFR1-/-, TNFR2-/-, tmTNF KI/KI) (mouse (endogenous in BMDMs)) (UniProt P06804)

Substance: etanercept, a soluble form of TNFR2 coupled to human Fc domain (from UniProt P20333 23-257) (Fc fusion)
- internalization score of ETA-488 in 3TG BMDMs at 20 min, imaging cytometry: 0.73
